Laboratory results: US20240417479A1 (LASSEN THERAPEUTICS, published 2024)

Tests used:
[1] = molecular target: T1, human IL-18BP (interleukin-18 binding protein), mature human isoform A (human, UniProt O95998 31-194); assay: cell-based or functional assay
T1 sequence: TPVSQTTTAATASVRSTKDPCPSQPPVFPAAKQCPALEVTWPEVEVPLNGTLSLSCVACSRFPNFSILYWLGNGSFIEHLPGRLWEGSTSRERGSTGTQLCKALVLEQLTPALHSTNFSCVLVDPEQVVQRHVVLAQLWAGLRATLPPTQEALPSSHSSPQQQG

[2] = molecular target: T2, cynomolgus monkey IL-18BP (cynomolgus monkey); assay: cell-based or functional assay
T2 chain: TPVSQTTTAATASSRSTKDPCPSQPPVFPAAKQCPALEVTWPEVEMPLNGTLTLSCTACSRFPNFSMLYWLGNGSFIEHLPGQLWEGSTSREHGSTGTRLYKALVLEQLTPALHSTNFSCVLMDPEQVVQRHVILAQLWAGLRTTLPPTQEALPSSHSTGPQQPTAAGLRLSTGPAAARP

[3] = molecular target: T1, human IL-18BP (interleukin-18 binding …); assay: cell-based or functional assay; remark: listed apart in the source
[4] = molecular target: T2, cynomolgus monkey IL-18BP; assay: cell-based or functional assay
[5] = molecular target: T1, human IL-18BP (interleukin-18 binding …); assay: BLI (Octet), mAb on AHC biosensor, IL-18BP in solution

Row | Binder | EC50; IFNγ secretion (ELISA) from purified human NK cells with precomplexed hIL-18:hIL-18BP plus IL-12 [1] [nM] | EC50; IFNγ release (ELISA) from cynomolgus monkey PBMC with IL-12 + IL-18, assay format 1 (endogenous IL-18BP) [2] [nM] | EC50; CCL2 release (ELISA) from human PBMC with IL-12 + IL-18, PBMC assay 1 (endogenous IL-18BP) [3] [nM] | EC50; IFNγ release (ELISA) from cynomolgus monkey PBMC, assay format 2 (pre-complexed IL-18:IL-18BP, plus IL-12) [4] [nM] | Kd [5] [nM]
1 | SA302a (antibody, human IgG1, V domains shown) VH: QVQLQESGPGLVKPSQTLSLTCTVSGYSITSDYNAHWIRQPPGKGLEWIGYIHYSGSTNYNPSLKSRVTISRDTSKNQFSLKLSSVTAADTAVYYCARNYGSIYVNYFDYWGQGTLVTVSS VL: EIVLTQSPATLSLSPGERATLSCSASSSVSYMYWYQQKPGQAPRPLIYRTSNLASGIPARFSGSGSGTDFTLTISSLEPEDFAVYYCQQYHSYPTFGGGTKVEIK | 1.3 | 3.4 | 25 | 0.63 | 
2 | SA338a (antibody, human IgG1, V domains shown) VH: QVQLQESGPGLVKPSQTLSLTCTVSGYSITQDYNAHWIRQPPGKGLEWIGYIHYSGQTYYNPSLKSRVTISRDTSKNQFSLKLSSVTAADTAVYYCARNFGSIYVNYFDYWGQGTLVTVSS VL: EIVLTQSPATLSLSPGERATLSCSASSSVSYMYWYQQKPGQAPRPLIYRTSNLASGIPARFSGSGSGTDFTLTISSLEPEDFAVYYCQLYHSYPTFGGGTKVEIK | 0.43 | 0.14 | 0.9 | 0.41 | 
3 | SA339a (antibody, human IgG1, V domains shown, Humanized; human IgG1, kappa) VH: QVQLQESGPGLVKPSQTLSLTCTVSGYSITQDYNAHWIRQPPGKGLEWIGYIHYSGQTYYNPSLKSRVTISRDTSKNQFSLKLSSVTAADTAVYYCARNFGSIYVNYFDYWGQGTLVTVSS VL: EIVLTQSPATLSLSPGERATLSCSASSSVSYMYWYQQKPGQAPRPLIYRTSNLASGIPARFSGSGSGTDFTLTISSLEPEDFAVYYCQQYHSYVTFGGGTKVEIK |  |  |  |  | 0.087
4 | SA340a (antibody, human IgG1, V domains shown) VH: QVQLQESGPGLVKPSQTLSLTCTVSGYSITQDYNAHWIRQPPGKGLEWIGYIHYSGQTYYNPSLKSRVTISRDTSKNQFSLKLSSVTAADTAVYYCARNFGSIYVNYFDYWGQGTLVTVSS VL: EIVLTQSPATLSLSPGERATLSCSASSSVSYMYWYQQKPGQAPRPLIYRTSNLASGIPARFSGSGSGTDFTLTISSLEPEDFAVYYCQQYHSYPKFGGGTKVEIK | 0.23 |  |  |  | 
5 | SA337a (antibody, human IgG1, V domains shown) VH: QVQLQESGPGLVKPSQTLSLTCTVSGYSITQDYNAHWIRQPPGKGLEWIGYIHYSGQTNYNPSLKSRVTISRDTSKNQFSLKLSSVTAADTAVYYCARNYGSIYVNYFDYWGQGTLVTVSS VL: EIVLTQSPATLSLSPGERATLSCSASSSVSYMYWYQQKPGQAPRPLIYRTSNLASGIPARFSGSGSGTDFTLTISSLEPEDFAVYYCQLYHSYPTFGGGTKVEIK | 0.59 | 0.58 | 4.7 | 0.39 | 
